Experimental data from patent publication US7157568B1, “Human estrogen receptor-β” (American Home Products Corporation, priority 1997, dated 2007).

How the values were obtained:
Type in all cases: cell-based
[1] = system: NFkB binding site reporter (3x-NFkB TK.LUC) in HepG2 cells; experiment: NFkB-luciferase reporter assay in IL-1β-stimulated transfected HepG2 cells; conditions: IL-1β and estradiol
Protocol: FIG. 7A is a graphic illustration of the effect of estradiol stimulation of full-length hERβ (hERβL) and truncated hERβ (hERβT) on NFkB activation in HepG2 cells. Cells were transfected with either hERβL or hERβT and co-transfected with a luciferase reporter plasmid containing three copies of an NFkB binding site (3×-NFkB TK.LUC) and a control β-galactosidase plasmid. Cells were stimulated with interleukin-1β and incubated in the absence or presence of estradiol, after which luciferase activity was measured and normalized to β-galactosidase activity. FIG. 7B is a graphic illustration of luciferase activity in cells transfected with either hERβL or hERβT and co-transfected with a luciferase reporter plasmid lacking an NFkB binding site (TK.LUC).
In a separate experiment, HepG2 cells were transfected with hERβT or […] as above, but the reporter gene consisted of three copies of an NFkB binding site upstream of the TK basal promoter. Transfected cells were incubated with or without interleukin-1β (IL-1β) to activate NFkB and/or with estradiol prior to luciferase determination.

[2] = system: ERE-LacZ reporter (YRpE2) in S. cerevisiae strain BJ2168; experiment: ERE-LacZ reporter assay in yeast; conditions: 17-β estradiol or Genistein for 3 hours
[3] = system: ERE (ERE.TK.LUC reporter) in HepG2 cells; experiment: ERE-luciferase reporter transactivation in transfected HepG2 cells; conditions: in the presence of estradiol
Protocol: FIG. 6A is a graphic illustration of the transcriptional activation capacity of full-length hERβ (hERβL) and truncated hERβ (hERβT) expressed in HepG2 cells. Cells were transfected with either hERβL or hERβT and co-transfected with a luciferase reporter plasmid containing an estrogen response element (ERE) (ERE.TK.LUC) and a control β-galactosidase plasmid. Cells were incubated in the absence or presence of estradiol, after which luciferase activity was measured and normalized to β-galactosidase activity. FIG. 6B is a graphic illustration of luciferase activity in HepG2 cells transfected with either hERβL or hERβT and co-transfected with a luciferase reporter plasmid lacking an ERE (TK.LUC)
HepG2 cells (ATCC) were transfected in parallel with either pcDNA3-hERβL or pcDNA3-hERβT using the calcium phosphate co-precipitation method. Cells were co-transfected with a reporter plasmid containing a luciferase gene preceded by either an ERE upstream of the thymidine kinase (TK) basal promoter, or the TK basal promoter alone. […] Luciferase activity was measured by a chemiluminescent method using the Promega luciferase assay system, and β-galactosidase activity was measured by Galactolight (Tropix, Inc., Bedford Mass.); luciferase activity was then normalized to β-galactosidase activity.

[4] = system: ERE-reporter gene in HAECT-1 cells; experiment: ERE-luciferase reporter transactivation in HAECT-1 human endothelial cells; conditions: 100 nM 17-β estradiol overnight
Protocol: FIG. 8 is a graphic illustration of the transcriptional activation capacity of full-length hERβ (hERβL) and truncated hERβ (hERβT) expressed in HAECT-1 human endothelial cells. Cells were transfected with either hERβL or hERβT and co-transfected with a luciferase reporter plasmid containing an ERE (ERE.TK.LUC) or one lacking an ERE (TK.LUC). Cells were incubated in the absence or presence of estradiol, after which luciferase activity was measured. ERE TK.LUC values were normalized to TK.LUC values and are presented as mean±S.E. (n=4).
HAECT-1 cells (a clonal immortalized human aortic endothelia cell line derived by infection with Ad5 ori-SV40 ts A209) were transfected with pcDNA3hERβT or pcDNA3-hERβL and ERE-luciferase plasmids by electroporation. After 4 hours, the cells were treated overnight with or without 100 nM 17-β estradiol prior to luciferase activity measurements. […] In independent experiments, cells transfected under identical conditions were monitored for their levels of estrogen receptors using a ligand binding assay.

B1: hERβL: full-length human estrogen receptor-β of 530 amino acid residues, SEQ ID NO:2 (protein)
chain: MDIKNSPSSLNSPSSYNCSQSILPLEHGSIYIPSSYVDSHHEYPAMTFYSPAVMNYSIPSNVTNLEGGPGRQTTSPNVLWPTPGHLSPLVVHRQLSHLYAEPQKSPWCEARSLEHTLPVNRETLKRKVSGNRCASPVTGPGSKRDAHFCAVCSDYASGYHYGVWSCEGCKAFFKRSIQGHNDYICPATNQCTIDKNRRKSCQACRLRKCYEVGMVKCGSRRERCGYRLVRRQRSADEQLHCAGKAKRSGGHAPRVRELLLDALSPEQLVLTLLEAEPPHVLISRPSAPFTEASMMMSLTKLADKELVHMISWAKKIPGFVELSLFDQVRLLESCWMEVLMMGLMWRSIDHPGKLIFAPDLVLDRDEGKCVEGILEIFDMLLATTSRFRELKLQHKEYLCVKAMILLNSSMYPLVTATQDADSSRKLAHLLNAVTDALVWVIAKSGISSQQQSMRLANLLMLLSHVRHASNKGMEHLLNMKCKNVVPVYDLLLEMLNAHVLRGCKSSITGSECSPAEDSKSKEGSQNPQSQ
modifications: Human
attenuation of IL-1β-mediated NFkB transcriptional activation [1]: capable of attenuating
maximal level of estrogen-stimulated LacZ expression relative to hERβT-transformed cells [2]: 2 fold
activity relative to hERβT (ERE activity) [3]: about 3 fold
activity in activating the ERE-reporter gene relative to hERβT [4]: 2–3 times

B2: hERβT: truncated human estrogen receptor-β lacking the first 45 amino acids (Clone 3) (protein, UniProt Q92731 46-530, looked up, fragment)
chain: MTFYSPAVMNYSIPSNVTNLEGGPGRQTTSPNVLWPTPGHLSPLVVHRQLSHLYAEPQKSPWCEARSLEHTLPVNRETLKRKVSGNRCASPVTGPGSKRDAHFCAVCSDYASGYHYGVWSCEGCKAFFKRSIQGHNDYICPATNQCTIDKNRRKSCQACRLRKCYEVGMVKCGSRRERCGYRLVRRQRSADEQLHCAGKAKRSGGHAPRVRELLLDALSPEQLVLTLLEAEPPHVLISRPSAPFTEASMMMSLTKLADKELVHMISWAKKIPGFVELSLFDQVRLLESCWMEVLMMGLMWRSIDHPGKLIFAPDLVLDRDEGKCVEGILEIFDMLLATTSRFRELKLQHKEYLCVKAMILLNSSMYPLVTATQDADSSRKLAHLLNAVTDALVWVIAKSGISSQQQSMRLANLLMLLSHVRHASNKGMEHLLNMKCKNVVPVYDLLLEMLNAHVLRGCKSSITGSECSPAEDSKSKEGSQNPQSQ
attenuation of IL-1β-mediated NFkB transcriptional activation [1]: no inhibitory activity
